Experimental data from patent US20240043552A1 (Eli Lilly, published 2024).
Substitutions are numbered along the chain they refer to. Numbers in names are those of the source.

B1: MetMAb × BHA10 IgG BsAb, CH1/Cκ Wild-Type (AB / H4DR variable domain designs, 7.8.60 CH3, N297Q) (bispecific antibody)
heavy 1: EVQLVESGGGLVQPGGSLRLSCAASGYTFTSYWLHWVRKAPGKGLEWVGMIDPSNSDTRFNPEFKDRFTISADTSKNTAYLQMNSLRAEDTAVYYCATYRSYVTPLDYWGQGTLVTVSSASTKGPSVFPLAPSSKSTSGGTAALGCLVKDYFPEPVTVSWNSGALTSGVHTFPAVLQSSGLYSLSSVVTVPSSSLGTQTYICNVNHKPSNTKVDKKVEPKSCDKTHTCPPCPAPELLGGPSVFLFPPKPKDTLMISRTPEVTCVVVDVSHEDPEVKFNWYVDGVEVHNAKTKPREEQYQSTYRVVSVLTVLHQDWLNGKEYKCKVSNKALPAPIEKTISKAKGQPREPQVYTLPPSREEMTDNQVSLTCLVKGFYPSDIAVEWESNGQPENNYKTTPPVLMSDGSFFLASKLTVDKSRWQQGNVFSCSVMHEALHNHYTQKSLSLSPG
light 1: RIQMTQSPSSLSASVGDRVTITCKSSQSLLYTSSQKNYLAWYQDKPGKAPKLLIYWASTRESGVPSRFSGSGSGTDFTLTISSLQPEDFATYYCQQYYAYPWTFGQGTKVEIKRTVAAPSVFIFPPSDEQLKSGTASVVCLLNNFYPREAKVQWKVDNALQSGNSQESVTEQDSKDSTYSLSSTLTLSKADYEKHKVYACEVTHQGLSSPVTKSFNRGEC
heavy 2: QVQLVQSGAEVKKPGSSVKVSCKASGYTFTTYYLHWVRYAPGQGLEWMGWIYPGNVHAQYNEKFKGRVTITADKSTSTAYMELSSLRSEDTAVYYCARSWEGFPYWGRGTTVTVSSASTKGPSVFPLAPSSKSTSGGTAALGCLVKDYFPEPVTVSWNSGALTSGVHTFPAVLQSSGLYSLSSVVTVPSSSLGTQTYICNVNHKPSNTKVDKKVEPKSCDKTHTCPPCPAPELLGGPSVFLFPPKPKDTLMISRTPEVTCVVVDVSHEDPEVKFNWYVDGVEVHNAKTKPREEQYQSTYRVVSVLTVLHQDWLNGKEYKCKVSNKALPAPIEKTISKAKGQPRRPRVYTLPPSREEMTKNQVSLVCLVKGFYPSDIAVEWESNGQPENNYKTTPPVLDSDGSFFLYSVLTVDKSRWQQGNVFSCSVMHEALHNHYTQKSLSLSPG
light 2: DIQMTQSPSSLSASVGDRVTITCKASQNVGINVAWYQRKPGDAPKSLISSASYRYSGVPSRFSGSGSGTDFTLTISSLQPEDFATYFCQQYDTYPFTFGQGTKVEIKRTVAAPSVFIFPPSDEQLKSGTASVVCLLNNFYPREAKVQWKVDNALQSGNSQESVTEQDSKDSTYSLSSTLTLSKADYEKHKVYACEVTHQGLSSPVTKSFNRGEC
notes: Human IgG1; Tested as protein G purified product of four-plasmid co-expression; also called MetMAb × BHA10 Wild-Type
B2: MetMAb × Matuzumab IgG BsAb, CH1/Cκ Wild-Type (AB / H4DR variable domain designs, 7.8.60 CH3, N297Q) (bispecific antibody)
heavy 1: B1 heavy 1
light 1: B1 light 1
heavy 2: QVQLVQSGAEVKKPGASVKVSCKASGYTFTSHWMHWVRYAPGQGLEWIGEFNPSNGRTNYNEKFKSKATMTVDTSTNTAYMELSSLRSEDTAVYYCASRDYDYDGRYFDYWGRGTLVTVSSASTKGPSVFPLAPSSKSTSGGTAALGCLVKDYFPEPVTVSWNSGALTSGVHTFPAVLQSSGLYSLSSVVTVPSSSLGTQTYICNVNHKPSNTKVDKKVEPKSCDKTHTCPPCPAPELLGGPSVFLFPPKPKDTLMISRTPEVTCVVVDVSHEDPEVKFNWYVDGVEVHNAKTKPREEQYQSTYRVVSVLTVLHQDWLNGKEYKCKVSNKALPAPIEKTISKAKGQPRRPRVYTLPPSREEMTKNQVSLVCLVKGFYPSDIAVEWESNGQPENNYKTTPPVLDSDGSFFLYSVLTVDKSRWQQGNVFSCSVMHEALHNHYTQKSLSLSPG
light 2: DIQMTQSPSSLSASVGDRVTITCSASSSVTYMYWYQRKPGDAPKLLIYDTSNLASGVPSRFSGSGSGTDYTFTISSLQPEDIATYYCQQWSSHIFTFGQGTKVEIKRTVAAPSVFIFPPSDEQLKSGTASVVCLLNNFYPREAKVQWKVDNALQSGNSQESVTEQDSKDSTYSLSSTLTLSKADYEKHKVYACEVTHQGLSSPVTKSFNRGEC
notes: Human IgG1; also called MetMAb × Matuzumab Wild-Type
B3: Pertuzumab × BHA10 IgG BsAb, CH1/Cκ Wild-Type (AB / H4DR variable domain designs, 7.8.60 CH3, N297Q) (bispecific antibody)
heavy 1: EVQLVESGGGLVQPGGSLRLSCAASGFTFTDYTMDWVRKAPGKGLEWVADVNPNSGGSIYNQEFKGRFTLSVDRSKNTLYLQMNSLRAEDTAVYYCARNLGPSFYFDYWGQGTLVTVSSASTKGPSVFPLAPSSKSTSGGTAALGCLVKDYFPEPVTVSWNSGALTSGVHTFPAVLQSSGLYSLSSVVTVPSSSLGTQTYICNVNHKPSNTKVDKKVEPKSCDKTHTCPPCPAPELLGGPSVFLFPPKPKDTLMISRTPEVTCVVVDVSHEDPEVKFNWYVDGVEVHNAKTKPREEQYQSTYRVVSVLTVLHQDWLNGKEYKCKVSNKALPAPIEKTISKAKGQPREPQVYTLPPSREEMTDNQVSLTCLVKGFYPSDIAVEWESNGQPENNYKTTPPVLMSDGSFFLASKLTVDKSRWQQGNVFSCSVMHEALHNHYTQKSLSLSPG
light 1: RIQMTQSPSSLSASVGDRVTITCKASQDVSIGVAWYQDKPGKAPKLLIYSASYRYTGVPSRFSGSGSGTDFTLTISSLQPEDFATYYCQQYYIYPYTFGQGTKVEIKRTVAAPSVFIFPPSDEQLKSGTASVVCLLNNFYPREAKVQWKVDNALQSGNSQESVTEQDSKDSTYSLSSTLTLSKADYEKHKVYACEVTHQGLSSPVTKSFNRGEC
heavy 2: B1 heavy 2
light 2: B1 light 2
notes: Human IgG1; also called Pertuzumab × BHA10 Wild-Type
B4: MetMAb × BHA10 IgG BsAb, CH1/Cκ design 14.3.1.2 (bispecific antibody)
heavy 1: B1 heavy 1 with K149A, S185G
light 1: B1 light 1 with S137R, S182I
heavy 2: B1 heavy 2 with K212E
light 2: B1 light 2 with E123K
notes: Human IgG1; also called MetMAb × BHA10 14.3.1.2
B5: Pertuzumab × BHA10 IgG BsAb, CH1/Cκ design 14.3.1.2 (bispecific antibody)
heavy 1: B3 heavy 1 with K149A, S185G
light 1: B3 light 1 with S131R, S176I
heavy 2: B1 heavy 2 with K212E
light 2: B1 light 2 with E123K
notes: Human IgG1; also called Pertuzumab × BHA10 14.3.1.2
B6: MetMAb × BHA10 IgG BsAb, CH1/Cκ design 14.1.2 (bispecific antibody)
heavy 1: B1 heavy 1 with K149A, K215E
light 1: B1 light 1 with E129K, S137R
heavy 2: B1 heavy 2
light 2: B1 light 2
notes: Human IgG1; also called MetMAb × BHA10 14.1.2
B7: Pertuzumab × BHA10 IgG BsAb, CH1/Cκ design 14.1.2 (bispecific antibody)
heavy 1: B3 heavy 1 with K149A, K215E
light 1: B3 light 1 with E123K, S131R
heavy 2: B1 heavy 2
light 2: B1 light 2
notes: Human IgG1; also called Pertuzumab × BHA10 14.1.2
B8: MetMAb × BHA10 IgG BsAb, CH1/Cκ design 14.3.1.1 (bispecific antibody)
heavy 1: B1 heavy 1 with K149A, S185A
light 1: B1 light 1 with S137R, S182I
heavy 2: B1 heavy 2 with K212E
light 2: B1 light 2 with E123K
notes: Human IgG1; also called MetMAb × BHA10 14.3.1.1
B9: Pertuzumab × BHA10 IgG BsAb, CH1/Cκ design 14.3.1.1 (bispecific antibody)
heavy 1: B3 heavy 1 with K149A, S185A
light 1: B3 light 1 with S131R, S176I
heavy 2: B1 heavy 2 with K212E
light 2: B1 light 2 with E123K
notes: Human IgG1; also called Pertuzumab × BHA10 14.3.1.1
B10: MetMAb × Matuzumab IgG BsAb, CH1/Cκ design 14.1.2 (bispecific antibody)
heavy 1: B1 heavy 1 with K149A, K215E
light 1: B1 light 1 with E129K, S137R
heavy 2: B2 heavy 2
light 2: B2 light 2
notes: Human IgG1; also called MetMAb × Matuzumab 14.1.2

Columns and labels:
Assay in all cases: sandwich ELISA with mis-matched antigens
[1] = biological target: T1, hHER-2-Fc (human, UniProt P04626 23-652)
T1 construct: Bought (R&D systems); Coated on the plate; not shown: Fc of the bought fusion protein
Procedure: (§1) The dual-binding activity of the same synthesized IgG BsAbs is assessed using a sandwich ELISA. […] Sandwich ELISAs are developed for detecting the four different BsAb test articles; one for detecting anti-HER-2/anti-EGFR BsAb activity, one for detecting anti-HER-2/anti-LTPR BsAb activity, one for detecting anti-cMET/anti-EGFR BsAb activity and one for detecting anti-cMET/anti-LTPR BsAb activity. For all ELISAs, clear 96-well round bottom high binding Immulon microtiter plates (Greiner bio-one, cat #650061) are coated overnight at 2-8° C. with 50 μL/well 1 μg/mL hHER-2-Fc or 1 μg/mL hHGFR(cMet)-Fc (both from R&D systems) in a 50 mM Na2CO3 pH 8.3 buffer. The plates are washed 4 times with PBST and blocked with 200 μL/well casein buffer (Pierce) for 1 hr at room temperature. The plates are then washed 4 times with PBST and the parental IgG controls or BsAb IgG test articles are added at 50 μL/well and […] and serially diluted 1:3 down the plate. The controls and test articles are incubated on the plate for 1 hr at room temperature. The plates are then washed 4 times with PBST and 50 μL/well 1 μg/mL hEGFR-Fc-biotin or hLTβR-Fc-biotin (both from R&D systems) is added for 1 hr at room temperature. The plates are then washed 4 times with PBST followed by the addition of a 50 μL/well streptavidin-AP (Jackson Immunoresearch Labs Cat. #016-050-084) diluted 1:1000 in casein buffer. The streptavidin-AP is incubated in each well for 1 hr at room temperature. The plates are then washed 4 times with PBST and 100 μL/well 1-step PNPP substrate is added (Thermo Scientific Cat. #37621). After approximately 5-15 minutes, plates are read for Absorbance (405 nm) using a SPECTRAMAX® UV plate reader (Molecular Devices). Biotin-labeling of the hEGFR-Fc and hLTβR-Fc proteins is performed using EZ-LINK™ Sulfo-NHS-LC-Biotin (Thermo Scientific Cat. #21327) according to the manufacturer's protocol.

[2] = biological target: T2, hEGFR-Fc-biotin (human, UniProt P00533 25-645, biotin-labelled with EZ-LINK Sulfo-NHS-LC-Biotin)
T2 construct: Bought (R&D systems); Detection antigen of the sandwich; not shown: Fc of the bought fusion protein
Procedure: as §1

[3] = biological target: T3, hLTβR-Fc-biotin (human, UniProt P36941 28-227, limits assumed, biotin-labelled with EZ-LINK Sulfo-NHS-LC-Biotin)
T3 construct: Bought (R&D systems); Detection antigen of the sandwich; also called LTPR (as printed once); not shown: Fc of the bought fusion protein
Procedure: as §1

[4] = biological target: T4, hHGFR(cMet)-Fc (human, UniProt P08581 25-932)
T4 construct: Bought (R&D systems); Coated on the plate; not shown: Fc of the bought fusion protein
Procedure: as §1

T4 sequence (P08581 25-932): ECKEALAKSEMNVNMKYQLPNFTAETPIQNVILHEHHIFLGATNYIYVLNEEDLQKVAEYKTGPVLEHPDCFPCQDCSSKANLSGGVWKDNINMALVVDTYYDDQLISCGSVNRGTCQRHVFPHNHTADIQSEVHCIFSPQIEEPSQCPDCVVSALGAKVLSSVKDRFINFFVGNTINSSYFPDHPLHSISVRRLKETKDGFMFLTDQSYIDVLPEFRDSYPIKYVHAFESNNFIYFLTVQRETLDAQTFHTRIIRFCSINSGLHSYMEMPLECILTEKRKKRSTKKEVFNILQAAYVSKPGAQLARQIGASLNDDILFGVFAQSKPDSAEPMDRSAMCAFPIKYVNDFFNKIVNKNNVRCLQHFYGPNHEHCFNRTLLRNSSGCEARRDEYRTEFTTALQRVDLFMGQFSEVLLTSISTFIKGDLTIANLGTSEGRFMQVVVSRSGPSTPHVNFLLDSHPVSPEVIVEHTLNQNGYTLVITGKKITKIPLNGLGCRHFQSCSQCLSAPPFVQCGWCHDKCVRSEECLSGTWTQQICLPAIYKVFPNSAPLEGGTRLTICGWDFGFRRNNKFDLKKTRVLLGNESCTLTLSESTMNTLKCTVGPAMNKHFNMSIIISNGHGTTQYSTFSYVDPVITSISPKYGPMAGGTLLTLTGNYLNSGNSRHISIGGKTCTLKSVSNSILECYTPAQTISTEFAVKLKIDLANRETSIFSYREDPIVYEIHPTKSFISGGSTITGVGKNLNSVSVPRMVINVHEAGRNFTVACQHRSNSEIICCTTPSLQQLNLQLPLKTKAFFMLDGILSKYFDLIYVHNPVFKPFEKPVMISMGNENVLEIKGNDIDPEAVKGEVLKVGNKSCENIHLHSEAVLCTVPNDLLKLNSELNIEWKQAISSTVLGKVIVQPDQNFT
T3 sequence (P36941 28-227 limits assumed): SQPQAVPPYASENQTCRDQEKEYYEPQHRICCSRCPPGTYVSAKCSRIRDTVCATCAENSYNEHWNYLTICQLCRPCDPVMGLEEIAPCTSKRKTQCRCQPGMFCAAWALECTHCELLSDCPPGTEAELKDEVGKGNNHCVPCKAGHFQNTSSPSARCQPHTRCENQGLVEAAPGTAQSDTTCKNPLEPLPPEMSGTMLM

Row | Binder | binding result [1] | binding result [2] | binding result [3] | binding result [4]
1 | B1 | no binding | no binding |  | 
2 | B2 | no binding |  | no binding | 
3 | B3 |  | no binding |  | no binding
4 | B4 | no binding | no binding |  | 
5 | B5 |  | no binding |  | no binding
6 | B6 | no binding | no binding |  | 
7 | B7 |  | no binding |  | no binding
8 | B8 | no binding | no binding |  | 
9 | B9 |  | no binding |  | no binding
10 | B10 | no binding |  | no binding | 
